Kd and yeast surface expression data for 58 variants are collected here from the FLAb antibody collection (doi:10.7554/elife.23156).

Sequences and labels used below:
B1: scFv; the commonest letter at each place (parent)
chain 1: EVKLDETGGGLVQPGRPMKLSCVASGFTFSDYWMNWVRQSPEKGLEWVAQIRNKPYNYETYYSDSVKGRFTISRDDSKSSVYLQMNNLRVEDMGIYYCTGSYYGMDYWGQGTSVTVS
chain 2: DVVMTQTPLSLPVSLGDQASISCRSSQSLVHSNGNTYLRWYLQKPGQSPKVLIYKVSNRFSGVPDRFSGSGSGTDFTLKISRVEAEDLGVYFCSQSTHVPWTFGGGTKLEIK

Data set [1] covers variants of B1. Kind of data set: Kd (Tite-Seq). The following applies: with fluorescein; format: scFv 4-4-20, heavy + light.
Variants of B1 are the subject of data set [2]. Nature of the data set: yeast surface expression (ratio to wild type); higher = more expressed. The following applies: format: scFv 4-4-20, heavy + light.

A word on the Kd: it is the concentration at which binding is half-saturated.

Turning to chain 1 G100A S101F, the Kd in data set [1] was no less than 10 µM. In addition, the yeast surface expression in data set [2] is 0.652.

In the case of chain 1 G100A S101L, the Kd in data set [1] was no less than 10 µM. Moreover, the yeast surface expression in data set [2] came out at 0.553.

With chain 1 G100D M105W W108Y, the Kd in data set [1] is no less than 10 µM. Moreover, the yeast surface expression in data set [2] amounted to 0.168.

For chain 1 G100M M105F, the Kd in data set [1] is no less than 10 µM. For the same variant, the yeast surface expression in data set [2] is 0.769.

As for chain 1 G100R Y103V W108N, the Kd in data set [1] was no less than 10 µM. Moreover, the yeast surface expression in data set [2] stood at 0.274.

As to chain 1 G100M G109W, the Kd in data set [1] is no less than 10 µM. The yeast surface expression in data set [2] was 0.185.

Regarding chain 1 G100M G109M, the Kd in data set [1] was no less than 10 µM. Also, in data set [2], the yeast surface expression was found to be 0.274.

Turning to chain 1 G100I W108R, the Kd in data set [1] is no less than 10 µM. Moreover, the yeast surface expression in data set [2] amounted to 0.781.

As to chain 1 G100I W108K, the Kd in data set [1] is no less than 10 µM. Besides, the yeast surface expression in data set [2] was determined as 0.698.

For chain 1 G100I W108M, in data set [1], the Kd was 0.00468 µM. For the same variant, the yeast surface expression in data set [2] is 0.946.

Consider chain 1 G100I Y107P W108I, for which, in data set [1], the Kd was no less than 10 µM. The yeast surface expression in data set [2] was 0.471.

Regarding chain 1 G100K G104C, in data set [1], the Kd turned out to be 4.6 µM. For the same variant, the yeast surface expression in data set [2] came to 0.182.

Consider chain 1 G100K G104H, for which, in data set [1], the Kd is no less than 10 µM. For the same variant, the yeast surface expression in data set [2] came to 0.322.

Regarding chain 1 G100M S101E W108V, the Kd in data set [1] is no less than 10 µM. Also, the yeast surface expression in data set [2] came to 0.515.

Regarding chain 1 F29V W36L, the Kd in data set [1] is no less than 10 µM. Moreover, in data set [2], the yeast surface expression came out at 0.332.

Consider chain 1 F29V W36S, for which the Kd in data set [1] was no less than 10 µM. In addition, in data set [2], the yeast surface expression amounted to 0.52.

Consider chain 1 G100A W108Y, for which the Kd in data set [1] is no more than 0.000316 µM. Further, the yeast surface expression in data set [2] turned out to be 0.892.

For chain 1 G100R Y102I, the Kd in data set [1] is no less than 10 µM. In addition, the yeast surface expression in data set [2] is 0.483.

With chain 1 G100E Y102G, the Kd in data set [1] was no less than 10 µM. In data set [2], the yeast surface expression was 0.488.

chain 1 G100I S101G D106C: the Kd in data set [1] was no less than 10 µM. Besides, in data set [2], the yeast surface expression was 0.777.

chain 1 G100C D106G: the Kd in data set [1] was no less than 10 µM. Besides, in data set [2], the yeast surface expression was found to be 0.553.

With chain 1 G100C D106Q, in data set [1], the Kd was no less than 10 µM. The yeast surface expression in data set [2] stood at 0.754.

Regarding chain 1 G100C D106N, the Kd in data set [1] turned out to be 0.00343 µM. Also, the yeast surface expression in data set [2] is 0.768.

As to chain 1 G100A D106W, in data set [1], the Kd is no less than 10 µM. Besides, the yeast surface expression in data set [2] stood at 0.393.

Take chain 1 G100H Y103Q G109A: in data set [1], the Kd is no less than 10 µM. Moreover, in data set [2], the yeast surface expression was 0.293.

As for chain 1 G100Q S101Q, the Kd in data set [1] is no less than 10 µM. Besides, the yeast surface expression in data set [2] was determined as 0.263.

Turning to chain 1 G100F W108A, in data set [1], the Kd is no less than 10 µM. In addition, the yeast surface expression in data set [2] came out at 0.671.

With chain 1 G100N G104N, the Kd in data set [1] is no less than 10 µM. For the same variant, the yeast surface expression in data set [2] came to 0.347.

On to chain 1 G100N G104Y, for which the Kd in data set [1] was no less than 10 µM. Further, the yeast surface expression in data set [2] amounted to 0.185.

In the case of chain 1 G100N G104W, the Kd in data set [1] is no less than 10 µM. Also, in data set [2], the yeast surface expression turned out to be 0.281.

For chain 1 G100N G104F, the Kd in data set [1] is no less than 10 µM. The yeast surface expression in data set [2] came to 0.321.

For chain 1 G100R Y103I, in data set [1], the Kd was no less than 10 µM. The yeast surface expression in data set [2] came to 0.418.

In the case of chain 1 G100R S101H, in data set [1], the Kd is no less than 10 µM. Besides, in data set [2], the yeast surface expression was 0.282.

In the case of chain 1 G100R S101I, the Kd in data set [1] is no less than 10 µM. In data set [2], the yeast surface expression is 0.352.

As to chain 1 F29W W33S, in data set [1], the Kd is no less than 10 µM. In data set [2], the yeast surface expression was found to be 0.431.

On to chain 1 G100Q G104E, for which the Kd in data set [1] is no less than 10 µM. In addition, the yeast surface expression in data set [2] was found to be 0.38.

As for chain 1 G100L Y102W, the Kd in data set [1] was no less than 10 µM. In data set [2], the yeast surface expression was found to be 0.497.

Turning to chain 1 G100P G104I, the Kd in data set [1] was no less than 10 µM. The yeast surface expression in data set [2] was determined as 0.337.

Take chain 1 G100P G104H: in data set [1], the Kd was no less than 10 µM. Moreover, the yeast surface expression in data set [2] turned out to be 0.68.

Consider chain 1 G100M M105P Y107D, for which the Kd in data set [1] is no less than 10 µM. The yeast surface expression in data set [2] came out at 0.325.

In the case of chain 1 G100A Y102R G109C, the Kd in data set [1] was no less than 10 µM. Moreover, the yeast surface expression in data set [2] amounted to 0.266.

Regarding chain 1 G100E W108G G109H, the Kd in data set [1] was no less than 10 µM. Further, the yeast surface expression in data set [2] was 0.242.

For the variant chain 1 G100Q Y107L G109E, the Kd in data set [1] is no less than 10 µM. Also, the yeast surface expression in data set [2] was found to be 0.226.

For the variant chain 1 G100R G104S, the Kd in data set [1] is no less than 10 µM. For the same variant, the yeast surface expression in data set [2] came to 0.28.

Regarding chain 1 G100R G104Q, the Kd in data set [1] was no less than 10 µM. Also, in data set [2], the yeast surface expression worked out at 0.217.

As to chain 1 G100I S101Y Y107A, in data set [1], the Kd is no less than 10 µM. The yeast surface expression in data set [2] was 0.466.

chain 1 G100Q D106I: the Kd in data set [1] was no less than 10 µM. Further, the yeast surface expression in data set [2] was 0.184.

For chain 1 G100Q D106H, the Kd in data set [1] is no less than 10 µM. Also, in data set [2], the yeast surface expression turned out to be 0.182.

Consider chain 1 G100Q D106P, for which, in data set [1], the Kd was no less than 10 µM. The yeast surface expression in data set [2] is 0.222.

In the case of chain 1 F29Y S30A D31M, the Kd in data set [1] was found to be 0.216 µM. Further, the yeast surface expression in data set [2] was found to be 0.826.

Take chain 1 G100D M105Y: in data set [1], the Kd was no less than 10 µM. For the same variant, in data set [2], the yeast surface expression stood at 0.228.

For chain 1 G100C S101W, the Kd in data set [1] is no less than 10 µM. In addition, the yeast surface expression in data set [2] came out at 0.507.

Take chain 1 G100C S101A: the Kd in data set [1] came to 0.00606 µM. The yeast surface expression in data set [2] was determined as 0.711.

As for chain 1 G100C S101C, the Kd in data set [1] is no less than 10 µM. Besides, the yeast surface expression in data set [2] amounted to 0.624.

On to chain 1 G100P M105A, for which the Kd in data set [1] is no less than 10 µM. For the same variant, the yeast surface expression in data set [2] is 0.56.

Consider chain 1 G100R G104V M105S, for which the Kd in data set [1] was no less than 10 µM. Further, the yeast surface expression in data set [2] was 0.211.

For the variant chain 1 G100Q Y107C, the Kd in data set [1] was no less than 10 µM. For the same variant, in data set [2], the yeast surface expression is 0.176.

Consider chain 1 G100D D106Q, for which the Kd in data set [1] was no less than 10 µM. For the same variant, in data set [2], the yeast surface expression stood at 0.17.
